Data from paper PMC8552062, “Contributions of UDP-Glucuronosyltransferases to Human Hepatic and Intestinal Metabolism of Ticagrelor and Inhibition of UGTs and Cytochrome P450 Enzymes by Ticagrelor and its Glucuronidated Metabolite” (Frontiers in Pharmacology, 2021).

Substrate: CCCSc1nc(N[C@@H]2C[C@H]2c2ccc(F)c(F)c2)c2nnn([C@@H]3C[C@H](OCCO)[C@@H](O)[C@H]3O)c2n1
Test: Ticagrelor glucuronidation by recombinant human UGT1A4
Assay type: in vitro ADME
Details: other: recombinant UGT1A4, Michaelis-Menten kinetics; pH 7.4; 37.0 °C
Experimental: Ticagrelor glucuronidation was investigated in an in vitro incubation system by using HLM, HIM, and recombinant human UGTs. The incubation system consisted of enzyme sources (HLM, HIM, or human recombinant UGTs), various concentrations of ticagrelor (dissolved in 50% methanol, 1% v/v, 1, 2, 5, 10, 20, 50, 100, 200, 500 μM of final concentration), alamethicin (50 μg/mg protein), 5 mM MgCl2, 100 mM tris-HCL buffer (pH 7.4), and 5 mM UDPGA in a total volume of 100 μl. Alamethicin is a pore-forming polypeptide used to activate UGTs in HLM and HIM ([Fisher et al., 2000]). Preliminary studies were conducted to determine the optimal protein concentrations and incubation times. Linear conditions of ticagrelor-O-Glu formation from ticagrelor, i.e., HLM, 0.2 mg of protein/ml and 60 min, HIM, 0.2 mg of protein/ml and 60 min, and recombinant human UGTs, 0.2 mg of protein/ml and 60 min were selected. The incubation mixture without UDPGA was placed on ice for 15 min to activate UGT by alamethicin. After pre-incubation for 5 min at 37°C, the reactions were started by the addition of UDPGA. After another 60 min of incubation at 37°C, the reaction was terminated by adding 100 μl of acetonitrile containing internal standard (diazepam). The mixture vortexed for 2 min and then centrifuged at 14,000 rpm for 10 min at 4°C. The resulting supernatant was injected into a liquid chromatography tandem mass spectrometry (LC-MS/MS, Applied Biosystems/MDS Sciex, Foster City, CA) system for the detection of ticagrelor-O-Glu.
Kinetic analyses were performed using the mean values of triplicate determinations with either pooled HLM, HIM, or recombinant human UGTs. All data were analyzed by nonlinear regression analysis using the GraphPad Prism 6 (GraphPad Software Inc., CA, United States). Michaelis-Menten kinetics (Eq. 1) or substrate inhibition kinetics (Eq. 2) ([Houston and Kenworthy, 2000]) were tested to determine the optimal model for describing the data. […] Intrinsic clearance (CLint) was calculated by dividing Vmax by Km.

B1: recombinant human UGT1A4 (Homo sapiens) (protein)
chain: GKVLVVPTDGSPWLSMREALRELHARGHQAVVLTPEVNMHIKEEKFFTLTAYAVPWTQKEFDRVTLGYTQGFFETEHLLKRYSRSMAIMNNVSLALHRCCVELLHNEALIRHLNATSFDVVLTDPVNLCGAVLAKYLSIPAVFFWRYIPCDLDFKGTQCPNPSSYIPKLLTTNSDHMTFLQRVKNMLYPLALSYICHTFSAPYASLASELFQREVSVVDLVSYASVWLFRGDFVMDYPRPIMPNMVFIGGINCANGKPLSQEFEAYINASGEHGIVVFSLGSMVSEIPEKKAMAIADALGKIPQTVLWRYTGTRPSNLANNTILVKWLPQNDLLGHPMTRAFITHAGSHGVYESICNGVPMVMMPLFGDQMDNAKRMETKGAGVTLNVLEMTSEDLENALKAVINDKSYKENIMRLSSLHKDRPVEPLDLAVFWVEFVMRHKGAPHLRPAAHDLTWYQYHSLDVIGFLLAVVLTVAFITFKCCAYGYRKCLGKKGRVKKAHKSKTH
notes: purchased BD Gentest; host or cells: baculovirus-infected insect cells
  Km: 10.28 µM
  Vmax: 3.6e-07 µmol/min/mg
  Vmax/Km: 0.04 µL/min/mg
